Test results reported in US20160038588A1, “Myostatin Antagonism in Human Subjects” (AMGEN INC., priority 2013, published 2016).

Columns and labels:
[1] = system: anti-AMG 745 (whole molecule) binding antibodies; assay: Clinical study: anti-AMG 745 binding antibody immunoassays; format: in vivo, human; settings: subjects who received AMG 745 (1/31)
Description: For the 54 subjects who completed the study serum samples were analysed by surface-plasmon-resonance-based biosensor immunoassays for anti-AMG 745 (whole molecule) binding antibodies. Samples from 2 subjects gave positive results in 1 or more of the immunoassays: […]

[2] = system: men with prostate cancer receiving ADT; assay: Clinical study: safety (adverse events, laboratory variables, ECG, vital signs); format: in vivo, human; settings: for DEATHS ON STUDY: during study or within 30 days of last dose
Description: Adverse events and concomitant medications were recorded at all study visits.
For safety analyses, all subjects who received AMG 745 or placebo were included and placebo-treated subjects from all cohorts were combined to form a composite placebo group.

[3] = Clinical study: pharmacokinetics of AMG 745 after weekly SC doses; settings: for AUC0-τ / Cmax / CL/F (apparent serum clearance, Dose/AUC Week 4): mean; for AUC0-τ: 7-day dosing interval; for Cmax: serum; for tmax: median
Description: This was a multicenter, randomized, double-blind, placebo-controlled, ascending-multiple-dose study in men with prostate cancer receiving ADT. The trial was designed to evaluate the safety, tolerability, PK, and pharmacodynamics of AMG 745.
Subcutaneous doses of 0.3 mg/kg, 1.0 mg/kg, and 3.0 mg/kg, were each administered once weekly for 4 weeks, and were evaluated in sequential cohorts. Eight subjects, randomized in a 3:1 allocation ratio to AMG 745 or placebo, were enrolled in the 0.3 mg/kg dose cohort and in the 1.0 mg/kg dose cohort. To evaluate safety, tolerability, PK and the effect of 4 weekly doses on lean body mass, a total of thirty-eight subjects were enrolled in the 3.0 mg/kg dose cohort, randomized in a 1:1 allocation ratio to AMG 745 or placebo.
The following procedures were performed pre-study and periodically during the study for all cohorts: physical examination, vital signs, electrocardiogram, hematology, chemistry, urinalysis, anti-AMG 745 antibody screen, and blood sample draws for PK. For the 3 mg/kg cohort DXA and lower extremity CT scans were conducted predose and on study day 29 (end of study) and at the one month follow-up visit. All DXA scans were performed on a Hologic or GE Lunar scanner. The same scanner was to be used for all visits for an individual subject. All DXA scans were sent to a central reading facility for review and analysis.
The pharmacokinetic analyses included all treated subjects for whom the pharmacokinetic parameters could be estimated. Pharmacokinetic parameters were estimated using noncompartmental methods. Summary statistics by dose cohort were generated for each pharmacokinetic parameter. Graphs of serum AMG 745 concentration-time profiles for individual subjects and the means for each dose were prepared.

[4] = system: men with prostate cancer receiving ADT; assay: Clinical study: pharmacodynamics (DXA lean and fat mass, CT lower extremity muscle size); format: in vivo, human
Description: Eligible subjects were men with a documented history of prostate cancer; no documented distant metastasis at time of enrollment; received ADT (androgen deprivation therapy) for at least 6 months as a primary, adjuvant, or salvage treatment for prostate cancer prior to enrollment; if ADT was being administered intermittently, serum total testosterone level <50 ng/dL at screening; a stable prostate-specific antigen (PSA) as determined by the investigator; no history of primary muscle disease, myopathy, or neuropathy; weight ≦137 kg (300 lbs) and height ≦78 inches; Eastern Cooperative Oncology Group (ECOG) performance status of 0 at screening; no clinically significant elevated creatine phosphokinase (CPK); glomerular filtration rate (GFR) >40 mL/min; aspartate aminotransferase (AST) or alanine aminotransferase (ALT)<2.5× upper limit of normal.
This planned enrollment assumed a between treatment group difference of 1.5% for the secondary endpoint, percent change in lean body mass from baseline to week 5 (standard deviation of 2.1; Smith et al. 2001), and provided 80% power for a 1-sided test at the 10% significance level. An analysis of variance (ANOVA) was used to compare percent change from baseline between treatment groups (3 mg/kg AMG 745 versus placebo).
Analyses of the pharmacodynamic effects were limited to the 3-mg/kg dose cohort and the study was designed to have 80% power to detect a statistically significant between-treatment-group difference in percent change in lean body mass.

[5] = 0.3 mg/kg SC 4-Week Dosing (N = 6)
[6] = 1.0 mg/kg SC 4-Week Dosing (N = 6)
[7] = 3.0 mg/kg SC 4-Week Dosing (N = 19)
[8] = Week 1 (Dose 1), 0.3 mg/kg SC once-weekly
[9] = Week 1 (Dose 1), 1 mg/kg SC once-weekly
[10] = Week 1 (Dose 1), 3 mg/kg SC once-weekly
[11] = Week 4 (Dose 4), 0.3 mg/kg SC once-weekly
[12] = Week 4 (Dose 4), 1 mg/kg SC once-weekly
[13] = Week 4 (Dose 4), 3 mg/kg SC once-weekly
[14] = 3 mg/kg, baseline to EOS (day 29)
[15] = 3 mg/kg, baseline to follow-up visit
[16] = CT scan, least squares mean (SE)
[17] = DXA scan, ad hoc analysis, least squares mean (SE)
[18] = lean body mass minus the head, DXA scan, least squares mean (SE)

In the case of “AMG 745: anti-myostatin peptibody: human IgG1 Fc fused at C-terminus via GGGGGAQ linker to peptide SEQ ID NO:311; chain SEQ ID NO:635”, the “incidence of anti-AMG 745 (whole molecule) binding antibodies” value [1] is reported as 3%, the “ALL ADVERSE EVENTS” value [2, 5] is reported as 5 (83) n (%) and the “ALL TREATMENT-RELATED ADVERSE EVENTS” value [2, 5] is reported as 1 (17) n (%). The “INVESTIGATIONAL PRODUCT DISCONTINUATIONS DUE TO ADVERSE EVENTS” value [2, 5] was 0 (0) n (%), the “STUDY DISCONTINUATIONS DUE TO ADVERSE EVENTS” value [2, 5] was 0 (0) n (%) and the “Serious adverse events (all adverse events)” value [2, 5] was 0 (0) n (%). The “Serious adverse events (treatment-related)” value [2, 5] was 0 (0) n (%), the “DEATHS ON STUDY” value [2, 5] was 0 (0) n (%) and the “ALL ADVERSE EVENTS” value [2, 6] was 5 (83) n (%). The “ALL TREATMENT-RELATED ADVERSE EVENTS” value [2, 6] was 3 (50) n (%), the “INVESTIGATIONAL PRODUCT DISCONTINUATIONS DUE TO ADVERSE EVENTS” value [2, 6] was 0 (0) n (%) and the “STUDY DISCONTINUATIONS DUE TO ADVERSE EVENTS” value [2, 6] was 0 (0) n (%). The “Serious adverse events (all adverse events)” value [2, 6] was 0 (0) n (%), the “Serious adverse events (treatment-related)” value [2, 6] was 0 (0) n (%) and the “DEATHS ON STUDY” value [2, 6] was 0 (0) n (%). The “ALL ADVERSE EVENTS” value [2, 7] was 15 (79) n (%), the “ALL TREATMENT-RELATED ADVERSE EVENTS” value [2, 7] was 3 (16) n (%) and the “INVESTIGATIONAL PRODUCT DISCONTINUATIONS DUE TO ADVERSE EVENTS” value [2, 7] was 1 (5) n (%). The “STUDY DISCONTINUATIONS DUE TO ADVERSE EVENTS” value [2, 7] was 0 (0) n (%), the “Serious adverse events (all adverse events)” value [2, 7] was 1 (5) n (%) and the “Serious adverse events (treatment-related)” value [2, 7] was 0 (0) n (%). For the same substance, the “DEATHS ON STUDY” value [2, 7] was 0 (0) n (%), the “relationship between subject incidence of adverse events and dose” value ([2]; 0.3 to 3 mg/kg) was “No relationship was apparent” and the “highest alanine aminotransferase [ALT]” value ([2]; 1 subject, 0.3 mg/kg) was 1.7 times the upper limit of normal (ULN). The “highest alkaline phosphatase [AP]” value ([2]; 1 subject, 0.3 mg/kg) was 1.5 times the upper limit of normal (ULN), the “highest aspartate aminotransferase [AST]” value ([2]; 1 subject, 0.3 mg/kg) was 2.2 times the upper limit of normal (ULN) and the “injection site bruising, subject incidence” value ([2]; 2/31) was 6%. For the same substance, the “subjects discontinued because of adverse events (erythema of the abdomen)” value ([2]; 3-mg/kg dose cohort, after the second dose) was 1 subject, the “serious adverse events (syncope), number” value ([2]; 3-mg/kg dose cohort, considered unrelated to treatment) was 1 and the “contusion, subject incidence” value ([2]; 3/31) was 10%. For the same substance, the “diarrhea, subject incidence” value ([2]; 4/31) was 13%, the “fatigue, subject incidence” value ([2]; 4/31) was 13% and the tolerability ([2]; 4 weekly SC doses, as high as 3.0 mg/kg) was “generally well tolerated”. The “subjects with treatment-related adverse events” value ([2]; AMG 745 at any dose, 7 of 31 subjects) was 23%, the “subjects with adverse events” value ([2]; AMG 745 at any dose, 25 of 31 subjects) was 81% and the “ALL ADVERSE EVENTS” value ([2]; All AMG 745 Subjects (N = 31)) was 25 (81) n (%). The “ALL TREATMENT-RELATED ADVERSE EVENTS” value ([2]; All AMG 745 Subjects (N = 31)) was 7 (23) n (%), the “INVESTIGATIONAL PRODUCT DISCONTINUATIONS DUE TO ADVERSE EVENTS” value ([2]; All AMG 745 Subjects (N = 31)) was 1 (3) n (%) and the “STUDY DISCONTINUATIONS DUE TO ADVERSE EVENTS” value ([2]; All AMG 745 Subjects (N = 31)) was 0 (0) n (%). For the same substance, the “Serious adverse events (all adverse events)” value ([2]; All AMG 745 Subjects (N = 31)) was 1 (3) n (%), the “Serious adverse events (treatment-related)” value ([2]; All AMG 745 Subjects (N = 31)) was 0 (0) n (%) and the “DEATHS ON STUDY” value ([2]; All AMG 745 Subjects (N = 31)) was 0 (0) n (%). The “fasting plasma glucose, insulin, cholesterol, LDL, HDL, triglycerides vs placebo” value ([2]; human, in vivo) was “no apparent differences between treatment groups”, the “dose linearity of pharmacokinetics” value ([3]; 4 weekly SC doses, 0.3 to 3 mg/kg) was “dose-linear pharmacokinetics” and the AUC0-τ [3, 8] was 68.0 µg·h/mL. The Cmax [3, 8] was 502 ng/mL, the tmax ([3]; Week 1 (Dose 1), 0.3 mg/kg SC once-weekly, men with prostate cancer on ADT) was 72.4 h and the AUC0-τ [3, 9] was 321 µg·h/mL. It also gave a Cmax [3, 9] of 2380 ng/mL, a tmax ([3]; Week 1 (Dose 1), 1 mg/kg SC once-weekly, men with prostate cancer on ADT) of 24.3 h and an AUC0-τ [3, 10] of 800 µg·h/mL. The Cmax [3, 10] was 6380 ng/mL, the tmax ([3]; Week 1 (Dose 1), 3 mg/kg SC once-weekly, men with prostate cancer on ADT) was 71.8 h and the “CL/F (apparent serum clearance, Dose/AUC Week 4)” value [3, 11] was 1.96 mL/h/kg. The AUC0-τ [3, 11] was 175 µg·h/mL, the Cmax [3, 11] was 1340 ng/mL and the tmax [3, 11] was 47.8 h. The “CL/F (apparent serum clearance, Dose/AUC Week 4)” value [3, 12] was 1.89 mL/h/kg, the AUC0-τ [3, 12] was 556 µg·h/mL and the Cmax [3, 12] was 4170 ng/mL. The tmax [3, 12] was 24.0 h, the “CL/F (apparent serum clearance, Dose/AUC Week 4)” value [3, 13] was 2.29 mL/h/kg and the AUC0-τ [3, 13] was 1380 µg·h/mL. For the same substance, the Cmax [3, 13] was 10800 ng/mL, the tmax [3, 13] was 24.0 h and the “percent change in lean body mass, least squares mean (SE)” value ([4]; 3 mg/kg weekly ×4, baseline to EOS (day 29)) was 1.5% (0.5%). The “lower extremity muscle size percent change” value [4, 14] was 1.2% (0.7%), the “percent change in fat body mass” value [4, 14] was −0.7% (0.2%) and the “fat body mass, between-group difference vs placebo” value ([4]; 3 mg/kg, baseline to EOS (day 29), p=0.005) was −1.0% (0.3%). The “lower extremity muscle size, between-group difference vs placebo” value ([4]; 3 mg/kg, baseline to EOS (day 29), p=0.065) was 1.8% (1.0%), the “lower extremity muscle size percent change” value [4, 15] was 2.7% (0.7%) and the “percent change in fat body mass” value [4, 15] was −0.8% (0.3%). The “lower extremity muscle size, between-group difference vs placebo” value ([4]; 3 mg/kg, baseline to follow-up visit, p=0.007) was 2.8% (1.0%), the “percent change in lean body mass, least squares mean (SE)” value ([4]; 3 mg/kg, follow-up visit 1 month after day 29) was 1.9% (0.5%) and the “Lower-extremity Muscle Size, Between-group difference in percent change, Baseline to Follow-up Visit [Day 58]” value ([4]; AMG 745 vs placebo, CT, least squares mean (SE), p value 0.007) was 2.8% (1.0%). The “Lower-extremity Muscle Size, Between-group difference in percent change, Baseline to EOS [Day 29]” value ([4]; AMG 745 vs placebo, CT, least squares mean (SE), p value 0.065) was 1.8% (1.0%), the “Whole Body Fat, Between-group difference in percent change, Baseline to EOS [Day 29]” value ([4]; AMG 745 vs placebo, DXA, ad hoc, least squares mean (SE), p value 0.005) was −1.0% (0.3%) and the “Whole Body Fat, Between-group difference in percent change, Baseline to Follow-up Visit [Day 58]” value ([4]; AMG 745 vs placebo, DXA, ad hoc, least squares mean (SE), p value 0.068) was −0.7% (0.4%). The “Lean Body Mass, Between-group difference in percent change, Baseline to EOS [Day 29]” value ([4]; AMG 745 vs placebo, DXA, least squares mean (SE), p value 0.008) was 2.2% (0.8%), the “Lean Body Mass, Between-group difference in percent change, Baseline to Follow-up Visit [Day 58]” value ([4]; AMG 745 vs placebo, DXA, least squares mean (SE), p value 0.023) was 1.7% (0.7%) and the “Lower-extremity Muscle Size, Percent Change From Baseline to EOS [Day 29]” value [4, 16] was 1.2% (0.7%). For the same substance, the “Lower-extremity Muscle Size, Percent Change From Baseline to Follow-up Visit [Day 58]” value [4, 16] was 2.7% (0.7%), the “Whole Body Fat, Percent Change From Baseline to EOS [Day 29]” value [4, 17] was −0.7% (0.2%) and the “Whole Body Fat, Percent Change From Baseline to Follow-up Visit [Day 58]” value [4, 17] was −0.8% (0.3%). The “Lean Body Mass, Percent Change From Baseline to EOS [Day 29]” value [4, 18] was 1.5% (0.5%) and the “Lean Body Mass, Percent Change From Baseline to Follow-up Visit [Day 58]” value [4, 18] was 1.9% (0.5%).
